50 sequences from the domain aggregation screens of Martell et al. (2025) can be followed below.

The data set in a line: soluble fraction after stress (log2 fold change); higher = more stays soluble; pooled small domains, quantitative proteomics. The settings on record: stress: 75 degC.
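Note: 20 min heating vs room temperature control held 20 min.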

With “HMVTDVDELEKLIQKVLDSNSSQVDEYRQGKEKVFGFFVGAVMKLTKGQADPDVVNQLLKEKLSGRK”, the “soluble fraction (log2)” value was -0.177.

Take “HMVTDVDYSTFLSQVEEGKVESVTIEDGEILFKGKDENGEARWYITGEMNDPNLVERLKDKVPSFNAPA”: the “soluble fraction (log2)” value came to 0.194.

As to “HMVTIYQRIMLVLEDKQVSVNALSKLVDMSQTTLNTQLKGERTLSANVVAKVLVAYPDVSAEWLMRGVGTM”, the “soluble fraction (log2)” value was -0.96.

As to “HMVTLYDGFLSELRKRIPRGAELTNTLVDMLYIEREAVYRRLRGEVPFTFIEVMTVSKELGISLDNLAQA”, the “soluble fraction (log2)” value is -1.38.

As for “HMVTTADIILEFYSRNPNATLTQAAQHVARATGTTYSRQAISAQLKRLEVAGLVERNGHVTV”, the “soluble fraction (log2)” value is -0.226.

In the case of “HMVTTLLIINVAGKVKNPGVYQLPPGSRVVDALEAAGQQLKGVDISDINLARVLVDGEQILIGSN”, the “soluble fraction (log2)” value is -2.5.

In the case of “HMVTVQEGETLSAIAARSGVSVKDLVRANEIRNPDSIQEGQVLFVP”, the “soluble fraction (log2)” value amounted to 0.115.

“HMVVADFQNYTVKPKENLYSLTKTSGLSQEELVALNPELKNGVQEGMVIKLPAAVKLMAQPE”: the “soluble fraction (log2)” value stood at 0.201.

For “HMVVLPGEVLRINVIQEGKEHGQGVGYMDDGTMVVIENGREFIGEYMEVNVTKVLQTAAGRMIFGRVD”, the “soluble fraction (log2)” value was -2.31.

“HMVVLPPTEDAPEWAQVFDRLGRPESADGYKLPVPEGADPAFAKLASAKMHELGLSAKQGAALAAWWNEQA”: the “soluble fraction (log2)” value came out at 0.0475.

For “HMVVMEIGANGSEVVKLQKRLNQLGYYTEHASGVYDVKTASAVNEFQRQNELNATGKADYTTLDMIYNQ”, the “soluble fraction (log2)” value was -0.00159.

For “HMVVRRLPFGFSKRFGVLVVPGTSNPVELLYREDASMQSLLEARRVVAQPVAFKKTDVESFNAQLARAHEN”, the “soluble fraction (log2)” value is -1.66.

As for “HMVVSDSAEIDKIVQDVIAANPKAIEDFKSGKTNVTGWLMGQVMKLSHGKANPKQATEILNKYLSK”, the “soluble fraction (log2)” value came to 0.513.

Take “HMVVTRVKAIDVVNIRKSDSETADKLGKAAVGDEFDLLEKKGNGWSKISYEGGEAYIKSEFLEPSE”: the “soluble fraction (log2)” value is 0.602.

Take “HMVVVMEKNASSAEIEQVQERLRQAGFKIHLSQGVERTIIGAIGDRSQVDLGFLEALPGVEKVVPIMK”: the “soluble fraction (log2)” value is 0.171.

“HMVVYFGGPVMLERGIVLHTPDISTKGTINVSDDFALTAHKEILDNINKDTSSLQFKLAIGH”: the “soluble fraction (log2)” value was -0.616.

Turning to “HMVWINIRDLSDLFSKSGKSENSKNILDLQTLKIEKLLGGGQINTPYTIKVKQATPSAIEKVKQAGGEVIL”, the “soluble fraction (log2)” value was -0.104.

Take “HMVWPETEAIVTEDFIGKKRSEVQQEGVIFEFFGEGDMVIDQLPRGGVTLNESGRVWIYLGEDTF”: the “soluble fraction (log2)” value is -0.78.

For “HMVYFAKNIRHLRRLRGMSQELLAAELDITRARLGAYEESRSEPPLHLLIKISEFFKLPVDIIVKNDLTKS”, the “soluble fraction (log2)” value was -4.88.

Consider “HMVYFDDEELDRFAGRAADSYTSDETDEFRDVMLTLLPADVMPWTQSIEMRGILLPEQLRDELLML”, for which the “soluble fraction (log2)” value is -0.391.

“HMVYVPTKAEVSQQFQDASKARFDERYAIVELADGRRTMAPLAFLTKADHAWLKQLASTSPLPKGK”: the “soluble fraction (log2)” value is -0.16.

With “HMWAQSVSLHGLLGRQALLIVDGKPPRAVAPGQTHLGVTVLSTDEDRAVVALAGGQRLTLRVGESPVSVG”, the “soluble fraction (log2)” value is -1.51.

Consider “HMWMEKEELLWNDIIRGGVERGELREDTDIQEAAALFRQVFIGLAYQMSFSDGLDVGILRKRFHHIYGLLT”, for which the “soluble fraction (log2)” value was -0.173.

On to “HMWNKGETKIPTQAQNELIKRRQAGATWTSLSEWLKATYGIDIHRTNIQRWYDKEVYLDQEN”, for which the “soluble fraction (log2)” value was -0.531.

Take “HMWNPVLVVRGDFPKDLATTLLKMIFAQKEALNPHILFQNLLRTDNITFRESYPYHSASKTMFRF”: the “soluble fraction (log2)” value is -0.276.

“HMWPQIAGFADRFGLSDTERRIVTLMSHGRSRKIIASTLGYSQNTIRNYTRNIYAKAGVHSKQELLDLLDP”: the “soluble fraction (log2)” value is -1.96.

Turning to “HMWPTPRTWSALMNELNLYKENHGYANIVDIPSEKIRRMADGIIGEDMAVRYVAFLQSHASS”, the “soluble fraction (log2)” value was -1.7.

Regarding “HMWQKGEPAITGLKRISKPGLRIYSKNDELPIVYGNRGIAVISTNKGVMTGIEAKRSGVGGEVLFYV”, the “soluble fraction (log2)” value is -0.112.

Consider “HMWSAREQVVNSLREAILTSELKAGERLVLSDLSARLGVSVTPIREALQSLEREGLVQLMPHQEAVVV”, for which the “soluble fraction (log2)” value was found to be 0.18.

“HMWVETITTKAGITKYKFQERYTDTYSGKTKRVSVTYTSNSRQAYKLAQAELQKKIDLATNTD”: the “soluble fraction (log2)” value was -0.638.

Consider “HMYAHLGKNLEVVINKALAQEDPEKKAGFAHHIAYYMKLAYSNWHKELVHDDAIRSELDTITGGELEFSN”, for which the “soluble fraction (log2)” value amounted to 0.609.

For the sequence “HMYAHTPEMEAMNELGLEPPVTLDEIKKTYKTLVKKYHPDHNKEDPEAEEKLKKVNMAYTILKVAYTEFEK”, the “soluble fraction (log2)” value is -0.246.

As for “HMYALGIPVSQYRRTTQVLGHESSYPIAYEDEKQDDDFYLFKFPNIDEYDFKKIVILLKQNGITT”, the “soluble fraction (log2)” value was -2.11.

As for “HMYDNTVTKYVNSLSVYVRKGPSTSDEIVTSLIKDTDVTVVGENGEWYKIKYKEFEGYIYKNLLSDNKT”, the “soluble fraction (log2)” value is -1.91.

Consider “HMYDRIKLLKLREKRGLTQYELAEKAGISVVTLNKIETSDMAKPFASTLKKIALALGVGIEELS”, for which the “soluble fraction (log2)” value was -2.2.

Consider “HMYEDGGAFLKAEREKYGLTLTDIYEHTHIPVRKLKAYEMHEEEMPDRTRALLELYFDQVAYEYES”, for which the “soluble fraction (log2)” value is -0.734.

As to “HMYEDIDSAYRILEINSTVSNQEIKNAYRRMAKKYHPDKVAHLGVEHQKGAEEKFKKVQEAYILIKKRRG”, the “soluble fraction (log2)” value was -0.918.

On to “HMYEENFSKIKNDISTIFKRHKISFTNNFISHLSSVFNTDSLTNKMELEKLDSFLINNKKVTENELLKFII”, for which the “soluble fraction (log2)” value is -0.0789.

For “HMYEINEIIRERRLKKGLTQAQVAKYLGVSAPAVNKWEKGTTYPDLVLLPALARLLDTDLTTLLSF”, the “soluble fraction (log2)” value is -1.46.

“HMYEVVPNMRGLTYNQATAALAAAGLKVELSDSIYDEHTQPGTVLDQSPRPNTKVKPNRVVYLTVNAF”: the “soluble fraction (log2)” value is -1.1.

As to “HMYFDDEELDTYKGRASNAYSPDETAQFEEVMTTMRPDEVAAWLRSLQLRGINLPDELKDEAIMLVE”, the “soluble fraction (log2)” value is -0.0968.

For “HMYFGNSLFQARKRSGLSQEGVAEKLGVSRQTVSKWETGETVPDIYQSKKMARLYGVSLDEL”, the “soluble fraction (log2)” value was 0.206.

For “HMYFNTADLKADSIHYGSTEQSVIKILGEPEYRETFVDNNVSYELFSYKGNLLLSFVENSLVSL”, the “soluble fraction (log2)” value was found to be 0.147.

Consider “HMYGTERILAQLANYGIPNKLAFQIQDFYKEETLQIVEQQPYRLVEDIQGMGFKIADQLAEELGI”, for which the “soluble fraction (log2)” value was -0.307.

Consider “HMYIDLHEIWKSLTDEEQTVVKLLETEPAHVDTLIENSQIPASRILATLTLLEVRGIVKRLPGRMFSLAD”, for which the “soluble fraction (log2)” value was -3.61.

As for “HMYIENIGDYLKSHDIKPSYQRIKVFEYLMQHKNHPTVDMIYKSLVDEIPTLSKTTVYNTLNLFIEKQI”, the “soluble fraction (log2)” value is -1.55.

Regarding “HMYITGAVIRKLREKNNITQLQLAERLRVSDKTISKWETGKGYPDITLLEPIAKTFSVSVTELISGDI”, the “soluble fraction (log2)” value was -2.46.

As for “HMYKNLRAFRESLGMTQKDFAASLSIGLSTYNGYEVGAREPKSDFWIAVARKYGVTIDYLMGFSDDPHK”, the “soluble fraction (log2)” value was -1.46.

Take “HMYKSSRASKSEVNKFLKFIIQSLDKRGFLQPGHKRQSMIRNIENIFYRTNLSDQEIRILLGIFSTLNK”: the “soluble fraction (log2)” value is -0.9.

Take “HMYLELVTKEGGSFDEPDYWGRRKLAYEIAGKTEGNYVVVKYTAEPATSDELDRVLNLNESVIRTKILRK”: the “soluble fraction (log2)” value was found to be 0.00439.
